We go through 16 molecules from US20230265151A1, “GIP/GLP1 CO-AGONIST COMPOUNDS” (priority 2020, published 2023).

Where a chain is given by its changes, count along the chain named. *1 amine or outer side, *2 acyl side, *3 side chain or, on linkers, in order; H or OH if unused. Where no end group is shown, it is not given here. Side-chain parts run from the residue outwards. [ ]: non-standard residue; d: D form. The star is where a group is joined. αMePhe(2-F) = C[C@](N)(Cc1ccccc1F)C(=O)O; γGlu = O=C(O)[C@H](CCC(=O)[*:2])N[*:1]; C14 diacid = O=C(O)CCCCCCCCCCCCC(=O)*; εLys = N[C@@H](CCCCN[*:1])C(=O)[*:2]; αMeY = C[C@](N)(Cc1ccc(O)cc1)C(=O)O; αMeL = CC(C)C[C@](C)(N)C(=O)O; Orn = NCCC[C@H](N)C(=O)O; Aib = CC(C)(N)C(=O)O

What all share (test): cell-based or functional assay
One assay deals with human glucagon receptor (human, UniProt P47871 26-477).
Assay [1] deals with T1, human glucose-dependent insulinotropic polypeptide (GIP) receptor (human, UniProt P48546 22-466).
T1 sequence (looked up): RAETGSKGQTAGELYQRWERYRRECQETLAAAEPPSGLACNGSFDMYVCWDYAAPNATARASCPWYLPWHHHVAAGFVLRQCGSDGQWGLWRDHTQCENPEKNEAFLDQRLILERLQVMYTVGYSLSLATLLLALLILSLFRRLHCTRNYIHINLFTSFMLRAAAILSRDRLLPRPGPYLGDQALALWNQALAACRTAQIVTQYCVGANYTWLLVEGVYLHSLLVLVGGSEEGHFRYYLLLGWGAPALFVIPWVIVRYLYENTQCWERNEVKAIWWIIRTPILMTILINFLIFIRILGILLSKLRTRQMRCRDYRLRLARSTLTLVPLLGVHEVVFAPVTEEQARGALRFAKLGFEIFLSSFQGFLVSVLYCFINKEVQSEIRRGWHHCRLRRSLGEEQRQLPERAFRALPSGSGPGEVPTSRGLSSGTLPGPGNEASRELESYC

Assay [2] concerns the target human glucagon-like peptide-1 (GLP-1) receptor (human, UniProt P43220 24-463).

B1: Example 161 (peptide)
peptide: YXEGTXTSDXSIXLDXKAQXEFIKXLIEGGPSSGAPPPS
modifications: Aib2, aMeF(2F)6, 4Pal10, aMeL13, Orn16, K17(Z), Aib20, K24(Z), αMeY25, C-terminal NH2; Z = eK-gE-C14_OH (so in the source)
As for B1, the “cAMP EC50” value in the assay with human glucagon receptor is more than 9950 nM; in assay [1] it was 0.0207 nM; in assay [2] it was 0.203 nM.

B2: Example 172 (peptide)
peptide: B1 peptide with K24X, P31K
modifications: Aib2, αMeF6, 4Pal10, αMeL13, Orn16, K17(Z), Aib20, D-Glu24, αMeY25, K31(Z), C-terminal NH2; Z = AEEA2-(γ-Glu)-CO-(CH2)10-CH3
B2: the “cAMP EC50” value with human glucagon receptor was more than 9950 nM; in assay [1], 0.0149 nM; in assay [2] it was 0.141 nM.

B3: Example 156 (peptide)
peptide: B1 peptide with K24X, P31K
modifications: Aib2, αMeF(2F)6, 4Pal10, αMeL13, Orn16, K17(Z), 4Pal20, D-Glu24, αMeY25, K31(Z), C-terminal NH2; Z = AEEA2-(γ-Glu)-CO-(CH2)12-CO2H
As for B3, the “cAMP EC50” value with human glucagon receptor was more than 9950 nM; in assay [1], 0.0422 nM; in assay [2] it was 4.6 nM.

B4: Example 275 (peptide)
peptide: B1 peptide with K17I, E21K, K24X, E28K
modifications: Aib2, αMeF(2F)6, 4Pal10, αMeL13, Orn16, Aib20, K21(Z), D-Glu24, αMeY25, K28(Z), C-terminal NH2; Z = AEEA2-(γ-Glu)-(10-(4-carboxyphenoxy)decanoyl)
With B4, the figures for the “cAMP EC50” value (in the assay with human glucagon receptor; in assay [1]; in assay [2]) were more than 9950 nM, 0.0152 nM and 0.737 nM, respectively.

B5: Example 277 (peptide)
peptide: B1 peptide with E21K, K24X
modifications: Aib2, αMeF(2F)6, OMeY10, αMeL13, Orn16, K17(Z), Aib20, K21(Z), D-Glu24, αMeY25, C-terminal NH2; Z = AEEA2-(γ-Glu)-(10-(4-carboxyphenoxy)decanoyl)
For B5, the “cAMP EC50” value was more than 9950 nM in the assay with human glucagon receptor, 0.0176 nM in assay [1] and 0.225 nM in assay [2].

B6: Example 158 (peptide)
peptide: B1 peptide with K24E, P31K
modifications: Aib2, αMeF(2F)6, 4Pal10, αMeL13, Orn16, K17(Z), Aib20, αMeY25, K31(Z), C-terminal NH2; Z = AEEA2-(γ-Glu)-CO-(CH2)12-CO2H
For the molecule B6, the “cAMP EC50” value in the assay with human glucagon receptor is more than 9950 nM; in assay [1], 0.0204 nM; in assay [2], 0.448 nM. Further, the “cAMP Emax” value in assay [1] worked out at 93.4%; in assay [2], 87.2%.

B7: Example 162 (peptide)
peptide: B1 peptide
modifications: Aib2, αMeF(2F)6, 4Pal10, αMeL13, Orn16, K17(Z), Aib20, K24(Z), αMeY25, C-terminal NH2; Z = (εK)-(εK)-(γ-Glu)-CO-(CH2)12-CO2H
B7: the “cAMP EC50” value is more than 9950 nM in the assay with human glucagon receptor, 0.022 nM in assay [1] and 0.327 nM in assay [2]. The “cAMP Emax” value in assay [1] worked out at 89.7%.

B8: Example 281 (peptide)
peptide: B1 peptide with E21K, K24X
modifications: Aib2, αMeF(2F)6, 2Nal10, αMeL13, Orn16, K17(Z), Aib20, K21(Z), D-Glu24, αMeY25, C-terminal NH2; Z = AEEA2-(γ-Glu)-(10-(4-carboxyphenoxy)decanoyl)
With B8, the results for the “cAMP EC50” value (with human glucagon receptor; in assay [1]; in assay [2]) were more than 9950 nM, 0.0187 nM and 0.252 nM, respectively.

B9: Example 283 (peptide)
peptide: B1 peptide with K17I, E28K
modifications: Aib2, αMeF(2F)6, 2Nal10, αMeL13, Orn16, Aib20, K24(Z), αMeY25, K28(Z), C-terminal NH2; Z = AEEA2-(γ-Glu)-(10-(4-carboxyphenoxy)decanoyl)
For B9, the results for the “cAMP EC50” value (with human glucagon receptor; in assay [1]; in assay [2]) were more than 9950 nM, 0.073 nM and 1.14 nM, respectively.

B10: Example 159 (peptide)
peptide: B1 peptide with K24E, P31K
modifications: Aib2, αMeF(2F)6, 4Pal10, αMeL13, Orn16, K17(Z), Aib20, αMeF25, K31(Z), C-terminal NH2; Z = AEEA2-(γ-Glu)-CO-(CH2)12-CO2H
Take B10: the “cAMP EC50” value with human glucagon receptor was more than 9950 nM; in assay [1], 0.0198 nM; in assay [2], 0.558 nM. Moreover, the “cAMP Emax” value amounted to 95.3% in assay [1] and 89.4% in assay [2].

B11: Example 279 (peptide)
peptide: B1 peptide with K17I, E28K
modifications: Aib2, αMeF(2F)6, OMeY10, αMeL13, Orn16, Aib20, K24(Z), αMeY25, K28(Z), C-terminal NH2; Z = AEEA2-(γ-Glu)-(10-(4-carboxyphenoxy)decanoyl)
As to B11, the “cAMP EC50” value is more than 9950 nM in the assay with human glucagon receptor, 0.0305 nM in assay [1] and 0.406 nM in assay [2].

B12: Example 280 (peptide)
peptide: B1 peptide with K17I, E21K, K24X, E28K
modifications: Aib2, αMeF(2F)6, OMeY10, αMeL13, Orn16, Aib20, K21(Z), D-Glu24, αMeY25, K28(Z), C-terminal NH2; Z = AEEA2-(γ-Glu)-(10-(4-carboxyphenoxy)decanoyl)
Turning to B12, the “cAMP EC50” value with human glucagon receptor is more than 9950 nM; in assay [1] it was 0.0229 nM; in assay [2], 0.346 nM.

B13: Example 289 (peptide)
peptide: B1 peptide with E21K, K24X
modifications: Aib2, αMeF(2F)6, OMeY10, αMeL13, Orn16, K17(Z), Aib20, K21(Z), D-Glu24, αMeY25, C-terminal NH2; Z = AEEA2-(γ-Glu)-CO-(CH2)10-CH3
With B13, the figures for the “cAMP EC50” value (in the assay with human glucagon receptor; in assay [1]; in assay [2]) were more than 9950 nM, 0.017 nM and 0.731 nM, respectively.

B14: Example 171 (peptide)
peptide: B1 peptide with K24X, P31K
modifications: Aib2, αMeF(2F)6, 4Pal10, αMeL13, Orn16, K17(Z), Ac6c20, D-Glu24, αMeY25, K31(Z), C-terminal NH2; Z = AEEA2-(γ-Glu)-CO-(CH2)12-CO2H
For B14, the “cAMP EC50” value is more than 9950 nM with human glucagon receptor, 0.0389 nM in assay [1] and 1.7 nM in assay [2].

B15: Example 278 (peptide)
peptide: B1 peptide with K24X, E28K
modifications: Aib2, αMeF(2F)6, OMeY10, αMeL13, Orn16, K17(Z), Aib20, D-Glu24, αMeY25, K28(Z), C-terminal NH2; Z = AEEA2-(γ-Glu)-(10-(4-carboxyphenoxy)decanoyl)
Take B15: the “cAMP EC50” value with human glucagon receptor is more than 9950 nM; in assay [1], 0.0173 nM; in assay [2], 0.29 nM.

B16: Example 168 (peptide)
peptide: Y[Aib]EGT[αMePhe(2-F)]TSDV[Aib]I[αMeL]LD[Orn]K([εLys-εLys-γGlu-C14 diacid])AQ[Aib]EFIK([εLys-εLys-γGlu-C14 diacid])[αMeY]LIEGGPSSGAPPPS-NH2
In the case of B16, the results for the “cAMP EC50” value (with human glucagon receptor; in assay [1]; in assay [2]) were more than 9950 nM, 0.0482 nM and 0.312 nM, respectively. For the same molecule, the “cAMP Emax” value worked out at 93% in assay [1] and 93.3% in assay [2].
